Assay results: publication PMC11372060, “Two KaiABC systems control circadian oscillations in one cyanobacterium” (Nature Communications, 2024)
One block for each molecule: values may come before it.

Columns and labels:
Assay in all cases: native gel or EMSA; single recombinant Kai proteins or two of them together, 16 h at 30 °C in phosphorylation assay buffer (0.2 µg/µl dephosphorylated Strep-KaiC3, 0.1 µg/µl of the others); 4-16% clear native PAGE at 4 °C; Coomassie or anti-His blot
[1] = target: KaiA3-His6 (Synechocystis sp. PCC 6803)
[2] = target: KaiB3 (recombinant, GST-tag removed) (Synechocystis sp. PCC 6803)
[3] = target: Strep-KaiC3 (Synechocystis sp. PCC 6803)
[4] = target: the molecule itself

stoichiometry N [1]: > 2
Molecule: KaiA3-His6 (natural protein)

stoichiometry N [2]: 4
Molecule: KaiB3 (recombinant, GST-tag removed) (natural protein)

Continued, molecule first:

Molecule: Strep-KaiC3 (natural protein)
stoichiometry N [3]: 6

B1: Synechococcus KaiA (recombinant, GST-tag removed) (natural protein, Synechococcus elongatus PCC 7942, UniProt Q79PF6 1-284, looked up)
chain: MLSQIAICIWVESTAILQDCQRALSADRYQLQVCESGEMLLEYAQTHRDQIDCLILVAANPSFRAVVQQLCFEGVVVPAIVVGDRDSEDPDEPAKEQLYHSAELHLGIHQLEQLPYQVDAALAEFLRLAPVETMADHIMLMGANHDPELSSQQRDLAQRLQERLGYLGVYYKRDPDRFLRNLPAYESQKLHQAMQTSYREIVLSYFSPNSNLNQSIDNFVNMAFFADVPVTKVVEIHMELMDEFAKKLRVEGRSEDILLDYRLTLIDVIAHLCEMYRRSIPRET
notes: KaiA of Synechococcus elongatus PCC 7942; plasmid provided by T. Kondo; Migrates at about 60 kDa on clear native PAGE (dimer); source: E. coli BL21(DE3), purified (glutathione-agarose 4B, PreScission cleavage); not shown: GST, N-terminal, cleaved
stoichiometry N [4]: 2
